Data as given in the DeepSol protein solubility set.

Assay: soluble on expression in E. coli; label from the status in PepcDB or PDB records

Sequence | soluble on expression in E. coli
YSLAVGGSSPFAEELMQELALTTEQLQVRAQEVLTEILNDYSSLRVKTIDSFFQEVMRAFSHELGLPGGFRIEMEQKAVLEQAVVRLLHSLGEKDTSDVENWIRRLAEDLIEEGRGHNIRREIVSLGDELFKEQLLLLSEEGKLPTKAAIHRYQTEMNKLMEGFEQRRLSIARRAEEIVATAGISFYDFKGGTKGGILEFAKVLKGGEVKPPTKTFMAMAEGDPETTLYAKTTPATTQAAILSAYQSGLKECLTEMATLYLGREWQEYSTAKQSLPFLNRLGIISDLWRQIEGIRQEENKMLISDAPSLLHRIIDGSETPFVYDK | not soluble
YTDEEWGFLQNQMICDLCEGYAIYRPRYILPDYNVYIQKGCEFLELPPPKDLDEALDGLLILYSHVPSITTYPVYIGRLDVLLEPFITDEEKDYIKIKRFLNHIDKTVPDSFCHANIGPYDTKAGRLILRAVIDLEAPTPNMTIRYDKSKTSREFAELAAKACLLVSKPSFANDAYYISDLGEEYGVASCYNALPECGGAYTLTRLRLGTIARTCKSADEMLNELLPRVAKCALSTMDKRHKFVVEESNFFNSSFLEKEGFIKRTNFTGMFAIVGLADATNHLLQCEGLNETFGKSVRGDEIATAIMDKLKEITDAHEGVYAERTGNRYLLHAQVGASNHEEDKRNAPAHRIRVGEEPTLLAHLKQSAPFHKYFPSGTGDLFAFDQTYVDHCDAVVDIIDGAFSLGYRYITTYLKNTDLIRVTGYLVKKSEVEKYRKGEVALR | not soluble
YTIYKEPLSLAPFEKIPSPLRRGLGKVAEVFPDGMRGKSLLQRGSMTMEERYYGNARSFNFDQMKRVIPWAKKEWDHREVTAPIYAQSEHMDPVARMQHLDLFTWMRGDILVKADKINMAHSLELRVPFLDKEVFEVAETIPYDLKIANGTTKYALRKAMEQIVPPHVLHRKKLGFPVPMRHWLAGDELFGWAQDTINESMTDQYFDKAAVLAMLNEHKNGVSDHSRRLWTVLAFMIWHGIFVEHRIDPGIEKRDYPVYL | not soluble
YTPPGRLGDESSGPRTDPRFSPAMVEALATFGLDAVAAAPPVSASDDLPTVLAAVGASHDGFQAVYDSIALDLPTDRDDVETSTETILGVDGNEITLHVFRPAGVEGVLPGLVYTHGGGMTILTTDNRVHRRWCTDLAAAGSVVVMVDFRNAWTAEGHHPFPSGVEDCLAAVLWVDEHRESLGLSGVVVQGESGGGNLAIATTLLAKRRGRLDAIDGVYASIPYISGGYAWDHERRLTELPSLVENDGYFIENGGMALLVRAYDPTGEHAEDPIAWPYFASEDELRGLPPFVVAVNELDPLRDEGIAFARRLARAGVDVAARVNIGLVHGADVIFRHWLPAALESTVRDVAGFAADRARLR | soluble
YVLAVTACPTGIAHTYMARDALKKQAEKMNIKIKVETNGSSGIKNHLTEQDIERATGIIVAADVHVETDRFDGKNVVEVPVADGIKRPEELINTALDTNRKPF | not soluble
YWASSQLTQLFLSTDLESLEPTCLSKDTIYQWKVVQTFGDRLRLRQRVLATAIVLLRRYMLKKNEEKGFSLEALVATCIYLSCKVEECPVHIRTICNEANDLWSLKVKLSRSNISEIEFEIISVLDAFLIVHHPYTSLEQAFHDGIINQKQLEFAWSIVNDSYASSLCLMAHPHQLAYAALLISCCNDENTIPKLLDLIKSTDAFKVILCVQRIISIYYFEDIEAAALEHHHHHH | soluble
